The results in this text go back to the DeepSol protein solubility set.

This series can be described thus: soluble on expression in E. coli; label from the status in PepcDB or PDB records.
With “MEEHPKILSIAGSDSCAGAGMQADLKTAMSLGCHCCTILVVLTAQNTKEVKSIIEVDEKFIVEQLDAIFTDITIEVVKLGVLYSKKIISLIHNYITNINKMREKKLLVVFDPVFVSSSGCMLVENLDYVKYALDLICPLSCIITPNFYECKVILEALNFNIDINNMRTSDLCKLVTEKLNINACLFKSCNIDINTEDENKLYAVDHLCIKNDNDYDTKIKQNISYDVYKLKSKRNPQKDIHGTGCTLSTAISCFLSKKYDIIQACIESKKYIYNCINYAYDLGSKSQGLNHLKAAQHLTDFRELQVIKVD”, the “soluble on expression in E. coli” value is “not soluble”.

Consider “MTTTDKQLLYVRTEMTIPGVGTSIHIAELEPTSTTHCTLHRILELDPSNTIRGAAHGNAVAGMAAAPERTVPHPNSYANFPDITATHLLQEEFEVLWAEAVAKFSELR”, for which the “soluble on expression in E. coli” value is given as “not soluble”.

For “MGSDKIHHHHHHQPGATGGTWTCCPVSWRAFQSNCYFPLNDNQTWHESERNCSGMSSHLVTINTEAEQNFVTQLLDKRFSYFLGLADENVEGQWQWVDKTPFNPHTVFWEKGESNDFMEEDCVVLVHVHEKWVWNDFPCHFEVRRICKLPGITFNWKPSK”, the “soluble on expression in E. coli” value is given as “not soluble”.

For “MLPQLKAQFKEREPDVREYNADILVVGGGLGGVAAALGALRNGRSVILTEAFEWIGGQLTSQAVPPDEHSWVEQFGITASYRALRTGVRQYYRDHYPLTDAARADLTLNPGDGNVSRLCHEPRVSLAVMEAMLAPFAAGGKLTILKPYEPIAADVEGDTVRAVTLRHCNTSDLVSCSARYIIDATELGDLLPLTATDYVTGFEAQSETGEPSAPAEAQPHNQQAVSICFAVDQVDGNHVIDKPARYDHWRQVAPEFWGGPLLSWDSPNPRTLERSRRFFDPNPVDNATRDVADQRHSAGDMSLWIFRRIAARHTFRPGAYASDICLVNWPMIDYFEAPIIDVTPEQYAERLADAASLSYSMFYWMQTEAPRPDGGQGFPGLRLRGDITGTEHGLAMAPYIRESRRIRALTTVVEQDLSLAVRGDRGAVHYPDSIGIGMYRIDLHPSTGGDNYIDVGACPFEIPLGALISRHKTNLLAASKNIGTTHITNGCYRLHPVEWNIGEVAGMLAAYCLDKGETPHGVHADEKRLAEFHTHIERQGVERHWPDIRGYLEHHHHHH”, the “soluble on expression in E. coli” value is reported as “not soluble”.

Turning to “MSLTLEDIARKLNISKNAVSLALANKPGVSEKTRQLVFQTAKELGYKFKEKEEQKGTIALIMTKNIIEDPYFFSAIVYSVENEIRKEGYDFSLYCISSEDEWNIEEILTSSSFEGIIIVSAISENVIKKIEEKKIPTVVIDNLVDSTCIDTVNTDNYRSTKAAIEYLIKQGFKHIGFIGDVNHAISYRERWEGFMAAHEEFDIEIDKKVCKIEGFKDFSKNPEPEIQAFLKSLEKMPQAFFCVSDLSTLLTASVLKEMGFQIPKDVSIVGFDDIELVKHFKPALSMIHIDRNYYGQRAVKQLLERIKCPNKPVEDVRIFCRLNIRKSIRAEGHHHHHH”, the “soluble on expression in E. coli” value was “not soluble”.

For the sequence “RHRCIGLTVETKPDWFFEREIDEALAYGTTKVELGVQNIDDRILAINNRGHTVADIARSTQLARDAGLKIVYHIMPGMYGSSFEKDLKSFDLMINDERFKPDMLKIYPTLVTQGTGLYNLWKNGKYRPYTTAETVDLIVEFMRRMPDWIRIQRIQR”, the “soluble on expression in E. coli” value is reported as “not soluble”.

Turning to “AEHSHESTLVQAGERIHITAQGVSAIETIDTRTISDAWQYRHLVVQNRPLTEVLDELNRHRRGHILYDRAQLQGIDMAVVLPLDDTDRALQLLVDSLPMIRIRTLTPYLVLVDLAPA”, the “soluble on expression in E. coli” value is “not soluble”.

Regarding “MNSNSLSRFTSIVRTTSIRGFHDRSSVPRVVDDREKSSAKYNDAGYTFRYHQQGVDPLPRIPDCKVPVARPAYKVRDQWSDEAARFGQNDYIDLLGDGSVHPAQLQYHTPTWLRGFPGQHKANELIKLIHYRNLYDAKLKQNSPKRWHELRKRIKYLMMQHNYNKQDEIGRERNLGLWEEEPDYTYKDKSRRSFKDEIH”, the “soluble on expression in E. coli” value is “not soluble”.

Consider “MTALGLIETKGLLAAVEAADAMLKAADVRLLEKNLASGGLVTITVAGEVSAVRAAVDAGVSAIRRVNAASLVSEHVIARPDEGVSRVVSLVPPAAVPPAAPPVQAPAGDSGAQQPVQEAAEAEPQTGSTVEEQTPAAVEASPAPAAAAPRTETVRYEISQLKKMNVSRLRQVARGVSGLSIPREAVKSANKKDLIDAIINSYRQIEE”, for which the “soluble on expression in E. coli” value is “not soluble”.

Consider “MLTLIQGKKIVNHLRSRLAFEYNGQLIKILSKNIVAVGSLRREEKMLNDVDLLIIVPEKKLLKHVLPNIRIKGLSFSVKVCGERKCVLFIEWEKKTYQLDLFTALAEEKPYAIFHFTGPVSYLIRIRAALKKKNYKLNQYGLFKNQTLVPLKITTEKELIKELGFTYRIPKKRL”, for which the “soluble on expression in E. coli” value is on record as “soluble”.

For the sequence “MGSDKIHHHHHHSCDNDDDESIAVPTPLQEAFSTRYPNVKNVKWETKAGYYVADFYDGYEASAWFTTDGNWHMTETDIPYTALPDPVKSAFEASDYKTWKRDDVDKLERQGIETVYVIEVENQNQEVDLYYSADGVLIKSIADTDDHENEHLPTTQLPAVMKTFIDGKYAGARIVEVDVEDDKNDWDFGFTEVDIIHFDSGLNRNVSKEVLFDKGREWYSTSWEVRRNELPTAVTNAISTEYAGYQMDDAEYFEMATETSYYQIELEGNNSPDIDIKVTADGTILK”, the “soluble on expression in E. coli” value is reported as “not soluble”.

In the case of “MGSDKIHHHHHHEDPRGKLTPENFFSTQDELNMSIYALYQKVNLSQVYTNMQLPQWQGDDITTNPGSNKQPAAEMDKFAAANNNKGVKDAWNMHYAIVKAANLIIQGASKTPTTQDEINIALGQAKFWRAYAYFTLVRLWGPLPMNLDNVNDDYTKPLSPVEEVYGHIVQDLTEAEAVLPTGYSGSPRFLNGVNVYVTRQAAKSTLAAVYMAMAGWPMNKTEYYAKAAEKAKEVIEGVNRGEYEYKLDKDYKDVYAMSNNYNNETVLGINYSPFVDWAQDSELTSCNQFESLGGWGDAWGEIRFWKEFPDGPRKDATYDPKIRLKDGTLVDWWELKEDGTPVVPEHHPMFSIFSVNWDPASKVNTSAPYDYTKPASQNMCNDHRHRIIRYSEVLLWYAEAKARTGQTDELAFKCLNDVRERAGLEPLTGLSADDLAEAAYKEHGWEVAGYWVALVTRRADQFRMNRLKDTFKERAENTAVEVADGILVKESVEYTNRTWSDNLMYLPYPDMDSQKNPNLVR”, the “soluble on expression in E. coli” value is “not soluble”.

“MFHCKGLYMSDQNDKLKNLKTSSMDRRLSIAKASLLAGTRWATASATSMFSSEAEKEKKRKKAMTEQANYLVSEIGKLKGSIVKIGQMMALYGEHFLPEEITQALNTLNNQTVALAWPAIKAHLQEQLGSKLDDLIIDHEPIGTASLAQVHRATRKSDGLELVLKIQYPGVAEAIDSDMSLFKNMLKLTRMVPQTREFDQWFDEVREMMHREVSYDIEAATTRRFAERLKTDPRYAVPQIIDAYCTTKILCMTFERGVPINSPVMLSLPQERRNKLGEASLEIAVREIFEWGEMQTDPNFGNYLVRLGNGTDIQDKIVLLDFGAIRQFDEHLLSVARNLIRAGYNHSNEEMVRAMTGYSFFDSIPESIKPDMAKVFLLATEAFSCPENNPDMPTGLMDEDNRYDWKKSQLHSRVMQQASKSMASRYFSVPPKEFMFISRKFIGAYTFMTVIEAKTNVRRMISHFVK”: the “soluble on expression in E. coli” value is listed as “soluble”.

“MNELVDTTEMYLRTIYDLEEEGVTPLRARIAERLDQSGPTVSQTVSRMERDGLLRVAGDRHLELTEKGRALAIAVMRKHRLAERLLVDVIGLPWEEVHAEACRWEHVMSEDVERRLVKVLNNPTTSPFGNPIPGLDELGVGPEPGADDANLVRLTELPAGSPVAVVVRQLTEHVQGDIDLITRLKDAGVVPNARVTVETTPGGGVTIVIPGHENVTLPHEMAHAVKVEKV”: the “soluble on expression in E. coli” value is “soluble”.

Consider “MAHHHHHHMSAGDTPVSLFLQACNQEGVKTPNPKLVEFFQSHETFDSILEIDLSNNYIGNRGLLAVLGVIEHLSCFRCLNAMDQKLYNSDFSEEAVKGNAVIDRIVEVFKVHPTANSLNLSNNPISNYAGRKLLSLAQVNRRMCLIEVSDTRIDFDLRNKIAKQCEENTRNMWDAEQDENANSCAVFGENLEWVPTQATADLTSLGAGRARRQTVRVEGIDPEAAKNYVPPVHEKSQEDTDMICKLLSHNVLFGFLGSKDILTVAGAMYREEFVKDERIIEFGQTHCDKLYVIQSGEADVIKEGQKVFVKTEGTAVGELELLYDTPAVATVKVSTEVLVAWVLDRETYRNLVMGSCIRRRETYMSMLAKVPFLQSLDAYERMQIADALTSDEFAAGDYIIHYDEEGEWLYIIIEGTVEVIGRDAAGNKTKVCEFHSGDHIGELEFLNKHRTVADIVAVTGVTTAKLNRRHFEMCMGPVMDVLKRNSTSAKYDYYQQVLQQQQQGAPAAVQ”, for which the “soluble on expression in E. coli” value is reported as “soluble”.
